This note sets out measurements from article doi:10.1101/2020.02.14.949818 (bioRxiv, 2020).

The data set “SEC-SAXS” concerns the molecule itself. In words: SEC-SAXS.
The data set “crystal structure” deals with the molecule itself. In words: crystal structure.

B1: truncated human FUT8 (HsFUT8_(105-575)) (domain or fragment)
chain: RNGLGKDHEILRRRIENGAKELWFFLQSELKKLKNLEGNELQRHADEFLLDLGHHERSIMTDLYYLSQTDGAGDWREKEAKDLTELVQRRITYLQNPKDCSKAKKLVCNINKGCGYGCQLHHVVYCFMIAYGTQRTLILESQNWRYATGGWETVFRPVSETCTDRSGISTGHWSGEVKDKNVQVVELPIVDSLHPRPPYLPLAVPEDLADRLVRVHGDPAVWWVSQFVKYLIRPQPWLEKEIEEATKKLGFKHPVIGVHVRRTDKVGTEAAFHPIEEYMVHVEEHFQLLARRMQVDKKRVYLATDDPSLLKEAKTKYPNYEFISDNSISWSAGLHNRYTENSLRGVILDIHFLSQADFLVCTFSSQVCRVAYEIMQTLHPDASANFHSLDDIYYFGGQNAHNQIAIYAHQPRTADEIPMEPGDIIGVAGNHWDGYSKGVNRKLGRTGLYPSYKVREKIETVKYPTYPEAEK
For the protein B1, in “SEC-SAXS”, the “stoichiometry N” value came out at 2.

B2: mouse FUT8 (MmFUT8_(68-575)) (domain or fragment)
chain: RIPEGPIDQGTATGRVRVLEEQLVKAKEQIENYKKQARNGLGKDHEILRRRIENGAKELWFFLQSELKKLKHLEGNELQRHADEILLDLGHHERSIMTDLYYLSQTDGAGDWREKEAKDLTELVQRRITYLQNPKDCSKARKLVCNINKGCGYGCQLHHVVYCFMIAYGTQRTLILESQNWRYATGGWETVFRPVSETCTDRSGLSTGHWSGEVNDKNIQVVELPIVDSLHPRPPYLPLAVPEDLADRLLRVHGDPAVWWVSQFVKYLIRPQPWLEKEIEEATKKLGFKHPVIGVHVRRTDKVGTEAAFHPIEEYMVHVEEHFQLLARRMQVDKKRVYLATDDPTLLKEAKTKYSNYEFISDNSISWSAGLHNRYTENSLRGVILDIHFLSQADFLVCTFSSQVCRVAYEIMQTLHPDASANFHSLDDIYYFGGQNAHNQIAVYPHKPRTEEEIPMEPGDIIGVAGNHWDGYSKGINRKLGKTGLYPSYKVREKIETVKYPTYPEAEK
For B2, the binding result in “crystal structure” is “binds”.
